Holding throughout (test): co-IP with T7-LC3C in HEK293T
One assay has as its target T1, HSP90AB1-HA (Homo sapiens (Human), UniProt P08238 2-724).
T1 construct: Plasmid pCDNA3-HSP90AB1-HA (addgene 22487); not shown: C-terminal HA tag
The protocol:
(§1) The data are representative of three independent experiments. [0146] […] The data are representative of three independent experiments. [0147] […] The data are representative of three independent experiments. [0148] […] The interaction of the peptides with T7-GABARAP or T7-GABARAPL1 proteins was analyzed by in vitro pull-down. The data are representative of three independent experiments. [0149] […] The data are representative of three independent experiments. [0150] […] [0151] (K) Quantification of Q103-HTT-GFP area/DAPI area (mean±SEM) as shown in [0152] (J). 48 h represents IB accumulation stage and 72 h represents clearance stage. P values are indicated (two-tailed t test, >20 views from three independent experiments). [0153] […] The data are representative of three independent experiments. [0154] […] The data are representative of three independent experiments. [0155] […] The data are representative of three independent experiments.
(§2) Co-immunoprecipitation was performed essentially as described before. In brief, 24 h after transfection, the cells were collected and lysed on ice for 30 min in co-IP buffer (50 mM Tris/HCl pH 7.4, 150 mM NaCl, 1 mM EDTA, 0.5% NP40) with protease inhibitor mixture, and the lysates were cleared by centrifugation. The resulting supernatants were incubated with indicated agarose or magnetic beads and rotated at 4° C. for 3 h. The agarose was washed five times with co-IP buffer.

The target in the next assay is T2, HA-CCT8 (human, UniProt P50990 2-548).
T2 construct: not shown: N-terminal HA tag
T2 sequence (looked up): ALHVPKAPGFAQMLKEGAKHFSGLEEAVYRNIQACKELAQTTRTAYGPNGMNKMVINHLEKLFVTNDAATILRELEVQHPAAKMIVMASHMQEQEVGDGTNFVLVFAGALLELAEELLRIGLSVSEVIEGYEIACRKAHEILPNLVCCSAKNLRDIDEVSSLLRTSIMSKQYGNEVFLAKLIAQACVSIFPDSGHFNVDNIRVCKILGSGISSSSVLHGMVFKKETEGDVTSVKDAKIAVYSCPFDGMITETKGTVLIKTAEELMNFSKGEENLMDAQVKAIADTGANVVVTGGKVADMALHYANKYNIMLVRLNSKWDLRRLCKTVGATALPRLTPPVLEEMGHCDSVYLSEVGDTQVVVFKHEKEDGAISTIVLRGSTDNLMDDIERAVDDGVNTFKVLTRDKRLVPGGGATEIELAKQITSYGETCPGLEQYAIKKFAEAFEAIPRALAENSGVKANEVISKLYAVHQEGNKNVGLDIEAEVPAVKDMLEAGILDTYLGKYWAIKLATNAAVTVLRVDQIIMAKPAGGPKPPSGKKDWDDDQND
The protocol:
as §1, §2

A further assay concerns the target T3, HA-CCT5 (human, UniProt P48643 2-541).
T3 construct: not shown: N-terminal HA tag
The procedure:
as §1, §2

For another assay, the target named is T4, HA-CCT3 (human, UniProt P49368 1-545).
T4 construct: Amplified from HEK293T cDNA; not shown: N-terminal HA tag
T4 sequence: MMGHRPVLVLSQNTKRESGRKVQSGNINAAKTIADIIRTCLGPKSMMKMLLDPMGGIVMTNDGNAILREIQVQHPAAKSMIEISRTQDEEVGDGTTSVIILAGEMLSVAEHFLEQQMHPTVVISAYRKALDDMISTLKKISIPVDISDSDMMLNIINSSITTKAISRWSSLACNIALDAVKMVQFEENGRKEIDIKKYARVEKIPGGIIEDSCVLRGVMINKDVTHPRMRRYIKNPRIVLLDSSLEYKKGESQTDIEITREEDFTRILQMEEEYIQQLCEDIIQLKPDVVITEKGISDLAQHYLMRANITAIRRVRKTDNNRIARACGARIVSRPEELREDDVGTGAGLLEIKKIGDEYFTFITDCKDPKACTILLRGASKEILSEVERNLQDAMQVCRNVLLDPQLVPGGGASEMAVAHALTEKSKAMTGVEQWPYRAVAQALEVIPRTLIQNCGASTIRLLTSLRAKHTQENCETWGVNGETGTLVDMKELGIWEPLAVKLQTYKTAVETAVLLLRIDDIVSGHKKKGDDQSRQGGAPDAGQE
The protocol:
as §1, §2

For another assay, the target named is T5, HA-CCT1 (human, UniProt P17987 1-556).
T5 construct: Amplified from HEK293T cDNA; not shown: N-terminal HA tag
The protocol: as §1, §2

Consider one molecule from patent publication US20240350586A1 (TSINGHUA UNIVERSITY, published 2024).

T1 sequence (P08238 2-724 limits assumed): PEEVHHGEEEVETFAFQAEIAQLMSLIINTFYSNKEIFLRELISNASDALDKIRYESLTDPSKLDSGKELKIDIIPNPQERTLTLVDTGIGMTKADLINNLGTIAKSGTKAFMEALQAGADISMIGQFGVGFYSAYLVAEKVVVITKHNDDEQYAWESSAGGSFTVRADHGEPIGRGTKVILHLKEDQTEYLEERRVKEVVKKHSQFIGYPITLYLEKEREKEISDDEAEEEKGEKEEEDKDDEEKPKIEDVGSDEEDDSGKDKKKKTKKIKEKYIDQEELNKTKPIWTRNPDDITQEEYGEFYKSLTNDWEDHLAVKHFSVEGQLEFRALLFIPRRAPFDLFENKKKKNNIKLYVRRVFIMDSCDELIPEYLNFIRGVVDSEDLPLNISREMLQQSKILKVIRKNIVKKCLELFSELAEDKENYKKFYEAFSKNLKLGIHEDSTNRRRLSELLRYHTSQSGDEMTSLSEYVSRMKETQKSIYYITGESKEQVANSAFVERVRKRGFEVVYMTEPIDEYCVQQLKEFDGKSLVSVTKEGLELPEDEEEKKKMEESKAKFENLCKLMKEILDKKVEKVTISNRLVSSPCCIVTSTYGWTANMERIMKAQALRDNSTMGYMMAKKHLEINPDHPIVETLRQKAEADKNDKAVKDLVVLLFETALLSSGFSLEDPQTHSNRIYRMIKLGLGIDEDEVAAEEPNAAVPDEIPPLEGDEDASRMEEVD
T5 sequence (P17987 whole entry): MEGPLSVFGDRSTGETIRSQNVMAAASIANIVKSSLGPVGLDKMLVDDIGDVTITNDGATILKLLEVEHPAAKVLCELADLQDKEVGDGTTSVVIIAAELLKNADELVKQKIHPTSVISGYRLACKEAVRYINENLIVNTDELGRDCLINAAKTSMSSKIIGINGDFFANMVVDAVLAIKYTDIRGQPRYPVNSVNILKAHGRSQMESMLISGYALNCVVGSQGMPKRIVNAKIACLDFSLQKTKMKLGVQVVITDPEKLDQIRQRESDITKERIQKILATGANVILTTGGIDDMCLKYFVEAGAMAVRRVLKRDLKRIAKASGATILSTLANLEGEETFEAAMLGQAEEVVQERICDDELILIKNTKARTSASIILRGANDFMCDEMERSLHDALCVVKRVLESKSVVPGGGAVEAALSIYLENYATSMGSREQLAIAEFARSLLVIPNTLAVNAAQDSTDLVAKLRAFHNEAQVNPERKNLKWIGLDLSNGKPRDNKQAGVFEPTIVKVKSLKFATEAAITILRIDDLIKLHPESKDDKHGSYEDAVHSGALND
T3 sequence (P48643 2-541 limits assumed): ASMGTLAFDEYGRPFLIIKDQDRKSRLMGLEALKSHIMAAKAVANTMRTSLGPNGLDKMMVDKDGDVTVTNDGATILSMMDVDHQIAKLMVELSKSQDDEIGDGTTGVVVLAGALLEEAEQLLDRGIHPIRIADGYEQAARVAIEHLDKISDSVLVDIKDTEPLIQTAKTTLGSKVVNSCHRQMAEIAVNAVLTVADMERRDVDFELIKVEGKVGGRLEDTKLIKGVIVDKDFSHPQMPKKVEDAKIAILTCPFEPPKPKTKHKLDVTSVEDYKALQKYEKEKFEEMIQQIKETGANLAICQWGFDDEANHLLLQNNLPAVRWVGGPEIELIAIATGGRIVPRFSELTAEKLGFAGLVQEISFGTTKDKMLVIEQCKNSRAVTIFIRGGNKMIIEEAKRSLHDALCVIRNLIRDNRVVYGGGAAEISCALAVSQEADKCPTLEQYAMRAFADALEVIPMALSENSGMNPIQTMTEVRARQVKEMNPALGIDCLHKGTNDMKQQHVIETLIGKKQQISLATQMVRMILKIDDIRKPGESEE

B1: T7-LC3C (expressed in cells) (other, UniProt Q9BXW4 1-126, looked up)
chain: MPPPQKIPSVRPFKQRKSLAIRQEEVAGIRAKFPNKIPVVVERYPRETFLPPLDKTKFLVPQELTMTQFLSIIRSRMVLRATEAFYLLVNNKSLVSMSATMAEIYRDYKDEDGFVYMTYASQETFG
notes: Expressed from pCDNA3-T7-LC3C; not shown: T7 tag
For the molecule B1, the binding result with HSP90AB1-HA is listed as “no binding”; in the assay with HA-CCT8, “no binding”; with HA-CCT5, “no binding”; in the assay with HA-CCT3, “binds”; with HA-CCT1 it was “binds”.
